This data set concerns the molecule itself. Briefly: native gel or EMSA.

B1: PII Δ47−53 (deletion of the apex of the T-loop) (natural protein, Escherichia coli, UniProt P0A9Z1 1-112, looked up)
chain: MKKIDAIIKPFKLDDVREALAEVGITGMTVTEVKGFGRQKGHTELYDFLPKVKIEIVVPDDIVDTCVDTIIRTAQTGKIGDGKIFVFDVARVIRIRTGEEDDAAI
As for B1, the binding result is recorded as “binds”.

(Values after publication PMC2786245 (Biochemistry, 2009).)
